{"source": "paper PMC7522650", "about": "“An Alternative Binding Mode of IGHV3-53 Antibodies to the SARS-CoV-2 Receptor Binding Domain” (Cell Reports, 2020)", "binders": {"B1": {"name": "COVA2-04 Fab (Fab, V domains shown)", "VH": "QVQLVETGGGLIQPGGSLRLSCAASGFTVSSNYMSWVRQAPGKGLEWVSVIYSGGSTFYADSVKGRFTISRDNSKNTLYLQMNSLRAEDTAVYYCARDLERAGGMDVWGQGTMVTVSS", "VL": "not shown"}, "B2": {"name": "COVA2-39 Fab (Fab, V domains shown)", "VH": "QVQLVETGGGLIQPGGSLRLSCAASGFTVSSNYMSWVRQAPGKGLEWVSVIYTGGTTYYADSVKGRFTISRDNSKNTLYLQMNSLRAEDTAVYYCARAHVDTAMVESGAFDIWGQGTRVTVSS", "VL": "QSALTQPASVSGSPGQSITISCTGTSSDVGSYNLVSWYQQHPGKAPKLMIYEVTKRPSGVSNRFSGSKSGNTASLTISGLQAEDEADYYCCSYAGSSTWVFGGGTKLTVL"}, "B3": {"name": "COVA2-39 with the 53TGGT56 motif reverted to the germline-encoded 53SGGS56 motif (Fab, V domains shown)", "VH": "B2 VH with T53S, T56S", "VL": "B2 VL"}}, "biological_target": "SARS-CoV-2 spike (S) protein receptor-binding domain (RBD), residues 319-541 (SARS-CoV-2, Wuhan-Hu-1 (GenBank …, UniProt P0DTC2))", "assay": "BLI", "conditions": "both partners purified", "note": "Positions count from the first letter of the chain named.", "data": [{"binder": "B1", "values": [{"measurement": "Kd", "value": 40, "unit": "nM"}]}, {"binder": "B2", "values": [{"measurement": "Kd", "value": 21, "unit": "nM"}]}, {"binder": "B3", "values": [{"measurement": "fold decrease in other", "value": "≥ 50", "unit": "fold"}]}]}
